Experimental data reported in US20230087785A1, “Leucine-Rich Repeat Kinase 2 Allosteric Modulators” (VIB VZW, priority 2020, published 2023).

Assays:
[1] = biological target: T1, endogenous LRRK2 (Mus musculus, UniProt Q5S006); assay: Colocalization of GFP-Nbs with endogenous LRRK2 on zymosan-containing phagosomes in RAW264.7 cells; format: cell-based; settings: RAW264.7 cells transfected with GFP-Nbs, zymosan 30 mins, fixed cells
T1 construct: endogenous in cells; host or cells: RAW264.7

[2] = biological target: T2, LRRK2 (Homo sapiens, UniProt Q5S007, M2397T/R50H); assay: Determination of kinase inhibition mechanism (Michaelis-Menten curves at varying ATP); format: biochemical; settings: for mechanism of inhibition vis-a-vis ATP as substrate: Lineweaver-Burk plot and global fit; for α-value: global fit, mixed inhibition model, 10 μM AQT0615, varying ATP
T2 construct: Full-length human LRRK2 was expressed and purified based on previously developed protocols; SF tag (FLAG-tag + Twin-Strep-tag); made in house; host or cells: HEK 293T
Method: FIGS. 11A-11C, Dose-response curves (upper panels) for the inhibition of the in vitro LRRK2 kinase activity by the group1 Nbs: Nb1 (FIG. 11A), Nb6 (FIG. 11B) and Nb23 (FIG. 11C), where the Nb concentration was varied from 200 or 150 μM to 0.006 μM in a two-fold serial dilution. The two lower panels show the Michaelis-Menten curves obtained for LRRK2 at varying concentrations of ATP and a fixed (sub-saturating) concentration of peptide substrate (AQT0615), and at varying concentrations of Nb1 (FIG. 11A), Nb6 (FIG. 11B) and Nb23 (FIG. 11C), and the corresponding linearizations according to the Lineweaver-Burk method (double-reciprocal plot). The Nb concentrations used are indicated below the plots. Each datapoint reflects the average (±SD) of three independent measurements.
To further confirm this, we set out to determine the mechanism of inhibition (competitive vs. uncompetitive vs. mixed/non-competitive) of these three Nbs vis-h-vis ATP as substrate, using our peptide phosphorylation assays as output. To this end, full Michaelis-Menten curves were obtained at a fixed (probably sub-saturating) concentration of peptide substrate (10 μM) and varying concentrations of ATP (FIGS. 11A-11C). […] This confirms that these Nbs are not competing with ATP for binding and that they inhibit the reaction by binding on an allosteric site, which is in agreement with the ELISA and CL-MS epitope mapping data. […] For CA12618, fitting on the same model yields a Kic^app of 5±1 μM with an α-value of 1.6±0.4, corresponding a Kic^app of 5 μM and a Kic^app of […]. For the kinase domain-binding CA13612, the linearized curves intersect closer to the Y-axis indicating a mechanism which is more ATP-competitive like. […] Fitting on a mixed inhibition model for CA13612 gives a Kic^app of 9±1 μM with an α-value of 7.5±1.9, corresponding a Kic^app of 9 μM and a Kic^app of 66 μM.
To determine the mechanism of inhibition and apparent Ki (Ki^app) values of CA12610, CA12618, CA13612 the PhosphoSens® Protein Kinase Assay (AssayQuant Technologies Inc.) in combination with the AQT0615 peptide substrate was used. Full Michaelis-Menten curves (relative velocity versus [ATP]) in presence of different Nb concentrations were collected at 30° C. in a buffer consisting of 50 mM HEPES pH 7.5, 0.1% Brij-35, 50 mM NaCl, 10 mM MgCl2 and […], using a fixed concentration of AQT0615 (10 μM) and varying concentrations of ATP. The LRRK2 concentration was chosen such that initial rates (linear fluorescence versus time curves) were obtained, and LRRK2, ATP and the Nbs were preincubated at 4° C. for 30 min prior to starting the reaction by adding the peptide substrate. The Michaelis-Menten curves for the different Nb concentrations were globally fit on a mixed-inhibition model using GraphPad Prism, according to the equation:
(with Kic^app=Ki^app and Ki^app−a·Ki^app)
Additionally, as a diagnostic tool, Michaelis-Menten curves were linearized using the Lineweaver-Burk (double reciprocal) plot.

T1 sequence (Q5S006 whole entry): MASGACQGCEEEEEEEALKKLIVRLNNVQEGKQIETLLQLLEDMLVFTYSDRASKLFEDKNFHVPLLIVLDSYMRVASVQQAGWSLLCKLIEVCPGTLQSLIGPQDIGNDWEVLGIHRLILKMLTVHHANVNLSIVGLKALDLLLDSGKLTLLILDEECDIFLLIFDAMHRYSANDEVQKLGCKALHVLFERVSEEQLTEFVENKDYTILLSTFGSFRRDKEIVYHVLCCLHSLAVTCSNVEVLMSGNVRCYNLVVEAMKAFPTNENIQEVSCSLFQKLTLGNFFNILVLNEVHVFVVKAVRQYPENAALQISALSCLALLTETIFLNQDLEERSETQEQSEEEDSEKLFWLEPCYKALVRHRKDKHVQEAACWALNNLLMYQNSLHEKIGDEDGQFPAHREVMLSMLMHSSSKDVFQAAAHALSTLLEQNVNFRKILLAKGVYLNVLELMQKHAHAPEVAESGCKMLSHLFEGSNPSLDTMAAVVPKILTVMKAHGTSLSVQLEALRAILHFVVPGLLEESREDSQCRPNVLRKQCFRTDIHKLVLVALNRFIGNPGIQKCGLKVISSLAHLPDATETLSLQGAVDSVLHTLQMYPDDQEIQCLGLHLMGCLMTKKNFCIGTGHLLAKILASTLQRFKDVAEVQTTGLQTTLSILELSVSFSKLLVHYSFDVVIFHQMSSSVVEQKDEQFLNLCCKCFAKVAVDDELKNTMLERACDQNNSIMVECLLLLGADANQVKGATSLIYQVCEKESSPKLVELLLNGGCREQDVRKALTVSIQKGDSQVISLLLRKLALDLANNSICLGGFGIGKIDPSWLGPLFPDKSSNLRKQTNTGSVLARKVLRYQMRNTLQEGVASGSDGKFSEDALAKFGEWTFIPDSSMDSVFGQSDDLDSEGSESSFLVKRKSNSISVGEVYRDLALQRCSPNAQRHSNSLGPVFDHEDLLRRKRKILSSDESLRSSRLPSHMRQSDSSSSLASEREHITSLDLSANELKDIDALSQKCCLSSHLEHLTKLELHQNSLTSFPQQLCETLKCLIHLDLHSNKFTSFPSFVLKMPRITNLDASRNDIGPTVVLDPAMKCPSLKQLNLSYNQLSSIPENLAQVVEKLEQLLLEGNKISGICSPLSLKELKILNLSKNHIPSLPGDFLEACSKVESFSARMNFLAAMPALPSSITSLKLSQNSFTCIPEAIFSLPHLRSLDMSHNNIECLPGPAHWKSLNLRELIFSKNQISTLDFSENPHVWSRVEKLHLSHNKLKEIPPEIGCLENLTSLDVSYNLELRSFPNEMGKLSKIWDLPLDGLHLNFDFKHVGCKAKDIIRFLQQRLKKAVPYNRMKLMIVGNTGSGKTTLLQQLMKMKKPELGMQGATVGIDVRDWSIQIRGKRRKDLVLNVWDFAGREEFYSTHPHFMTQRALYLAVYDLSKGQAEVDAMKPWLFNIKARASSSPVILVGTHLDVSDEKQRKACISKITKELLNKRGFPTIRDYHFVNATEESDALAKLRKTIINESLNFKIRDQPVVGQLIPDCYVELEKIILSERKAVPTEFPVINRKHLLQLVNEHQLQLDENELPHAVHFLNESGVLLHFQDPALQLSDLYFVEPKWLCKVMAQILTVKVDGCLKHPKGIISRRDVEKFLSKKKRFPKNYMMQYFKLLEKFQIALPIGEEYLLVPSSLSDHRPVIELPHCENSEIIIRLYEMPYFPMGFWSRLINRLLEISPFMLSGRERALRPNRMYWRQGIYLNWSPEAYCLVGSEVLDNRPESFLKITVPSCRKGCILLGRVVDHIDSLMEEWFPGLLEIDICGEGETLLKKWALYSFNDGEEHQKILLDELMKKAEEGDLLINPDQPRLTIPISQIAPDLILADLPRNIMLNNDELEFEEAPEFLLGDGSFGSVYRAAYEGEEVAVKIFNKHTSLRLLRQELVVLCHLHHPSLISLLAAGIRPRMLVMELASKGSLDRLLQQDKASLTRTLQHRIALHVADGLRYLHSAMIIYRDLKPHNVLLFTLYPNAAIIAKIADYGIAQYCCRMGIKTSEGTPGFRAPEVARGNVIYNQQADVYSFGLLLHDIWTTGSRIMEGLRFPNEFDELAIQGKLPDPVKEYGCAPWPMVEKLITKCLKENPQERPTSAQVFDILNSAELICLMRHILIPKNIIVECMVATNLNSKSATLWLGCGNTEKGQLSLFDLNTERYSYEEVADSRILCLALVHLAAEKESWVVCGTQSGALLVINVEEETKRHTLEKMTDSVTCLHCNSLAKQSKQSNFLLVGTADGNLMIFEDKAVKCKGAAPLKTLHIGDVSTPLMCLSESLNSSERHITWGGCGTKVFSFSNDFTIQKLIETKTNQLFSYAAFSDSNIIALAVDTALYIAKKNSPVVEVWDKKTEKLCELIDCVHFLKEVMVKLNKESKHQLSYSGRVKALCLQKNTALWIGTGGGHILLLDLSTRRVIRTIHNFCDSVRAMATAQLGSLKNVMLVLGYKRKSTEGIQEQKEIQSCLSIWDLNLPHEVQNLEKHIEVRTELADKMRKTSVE
T2 sequence (Q5S007 whole entry R50H/M2397T): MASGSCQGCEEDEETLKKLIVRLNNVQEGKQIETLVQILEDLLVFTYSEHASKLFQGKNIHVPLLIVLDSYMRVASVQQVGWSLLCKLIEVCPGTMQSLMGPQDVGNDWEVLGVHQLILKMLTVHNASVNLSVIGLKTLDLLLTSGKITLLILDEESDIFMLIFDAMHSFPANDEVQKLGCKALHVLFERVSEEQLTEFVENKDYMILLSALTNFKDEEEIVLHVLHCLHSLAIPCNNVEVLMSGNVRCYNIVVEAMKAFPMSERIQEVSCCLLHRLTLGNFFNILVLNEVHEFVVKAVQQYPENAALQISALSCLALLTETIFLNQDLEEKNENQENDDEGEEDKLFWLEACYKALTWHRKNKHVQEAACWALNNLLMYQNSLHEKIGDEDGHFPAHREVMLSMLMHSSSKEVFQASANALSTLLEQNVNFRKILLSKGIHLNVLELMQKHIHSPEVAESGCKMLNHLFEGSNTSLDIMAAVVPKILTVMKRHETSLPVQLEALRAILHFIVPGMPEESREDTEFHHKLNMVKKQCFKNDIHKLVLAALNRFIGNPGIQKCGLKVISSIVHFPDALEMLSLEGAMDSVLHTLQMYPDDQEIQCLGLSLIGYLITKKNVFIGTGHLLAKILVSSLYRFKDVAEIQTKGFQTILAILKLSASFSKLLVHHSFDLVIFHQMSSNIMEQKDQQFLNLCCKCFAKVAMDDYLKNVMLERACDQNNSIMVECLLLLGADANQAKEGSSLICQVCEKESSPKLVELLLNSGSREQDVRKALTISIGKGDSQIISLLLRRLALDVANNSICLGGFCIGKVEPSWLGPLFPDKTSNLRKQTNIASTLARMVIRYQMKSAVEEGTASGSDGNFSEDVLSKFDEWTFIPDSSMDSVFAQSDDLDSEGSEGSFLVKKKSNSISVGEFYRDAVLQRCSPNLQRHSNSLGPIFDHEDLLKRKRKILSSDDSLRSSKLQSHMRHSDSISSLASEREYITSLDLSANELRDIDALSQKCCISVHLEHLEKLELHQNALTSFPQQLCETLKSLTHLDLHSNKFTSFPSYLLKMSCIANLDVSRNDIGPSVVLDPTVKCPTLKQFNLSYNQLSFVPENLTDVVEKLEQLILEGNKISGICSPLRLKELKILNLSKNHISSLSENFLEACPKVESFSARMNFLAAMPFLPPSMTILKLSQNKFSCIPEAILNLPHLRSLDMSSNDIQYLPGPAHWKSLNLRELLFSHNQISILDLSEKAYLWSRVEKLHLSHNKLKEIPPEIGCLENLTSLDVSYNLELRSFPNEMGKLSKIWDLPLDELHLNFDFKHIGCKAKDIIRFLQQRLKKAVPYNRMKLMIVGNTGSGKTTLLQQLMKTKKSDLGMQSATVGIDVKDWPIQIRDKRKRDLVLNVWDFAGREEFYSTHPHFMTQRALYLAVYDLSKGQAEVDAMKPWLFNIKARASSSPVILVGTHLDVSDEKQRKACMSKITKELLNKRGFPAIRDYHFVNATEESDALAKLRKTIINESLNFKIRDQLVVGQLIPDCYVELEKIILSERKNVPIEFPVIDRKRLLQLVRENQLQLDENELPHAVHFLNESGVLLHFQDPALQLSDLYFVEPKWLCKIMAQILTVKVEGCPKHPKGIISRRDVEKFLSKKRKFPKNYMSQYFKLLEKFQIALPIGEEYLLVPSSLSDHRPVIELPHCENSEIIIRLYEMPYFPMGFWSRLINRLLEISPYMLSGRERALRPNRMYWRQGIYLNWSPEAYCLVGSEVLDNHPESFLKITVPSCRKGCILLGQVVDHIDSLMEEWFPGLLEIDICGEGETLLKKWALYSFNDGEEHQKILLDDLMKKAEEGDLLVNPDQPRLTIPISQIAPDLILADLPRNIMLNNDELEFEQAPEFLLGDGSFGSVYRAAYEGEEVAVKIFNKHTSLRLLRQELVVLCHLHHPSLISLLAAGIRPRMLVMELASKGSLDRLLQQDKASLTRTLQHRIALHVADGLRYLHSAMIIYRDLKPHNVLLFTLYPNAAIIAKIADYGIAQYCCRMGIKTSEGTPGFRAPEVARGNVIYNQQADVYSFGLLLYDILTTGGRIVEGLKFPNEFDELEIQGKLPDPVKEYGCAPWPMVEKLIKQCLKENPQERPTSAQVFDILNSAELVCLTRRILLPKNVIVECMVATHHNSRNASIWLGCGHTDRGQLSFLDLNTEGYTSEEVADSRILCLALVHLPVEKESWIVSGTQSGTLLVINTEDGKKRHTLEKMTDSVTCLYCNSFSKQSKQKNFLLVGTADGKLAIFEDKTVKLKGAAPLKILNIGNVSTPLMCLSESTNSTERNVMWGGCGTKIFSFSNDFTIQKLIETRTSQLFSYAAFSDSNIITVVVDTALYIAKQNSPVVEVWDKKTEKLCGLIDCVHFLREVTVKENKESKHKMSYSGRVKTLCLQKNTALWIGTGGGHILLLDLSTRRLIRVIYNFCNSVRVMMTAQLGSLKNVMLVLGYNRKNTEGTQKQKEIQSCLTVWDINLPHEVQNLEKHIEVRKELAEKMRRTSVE

Molecule | mechanism of inhibition vis-a-vis ATP as substrate [2] | α-value [2] | colocalization with endogenous LRRK2 on phagosomes [1]
Nb42: LRRK2-specific Nanobody, SEQ ID NO: 6 (protein, Nanobody CA14259) VHH: MAQVQLVESGGGLVQAGGSLRLSCAASGDVNYAVGWFRQAPRKEREFVAAINWRGDNTDYTDSVKGRFTISRDNAKNTVYLQMNSLKPEDTAVYYCAAKSAPYWYSDIAPDYWGQGTQVTVSS | – | – | did not colocalize with endogenous LRRK2
Nb22: LRRK2-specific Nanobody, SEQ ID NO: 9 (protein, Nanobody CA13611) VHH: MAQVQLVESGGGLVQAGGSLRLSCAASGRTFSSYTMGWFRQAPGKEREFVAAIRWSGGSTYYADSVKGRFTISRDNAKNTVYLQMNSLKPEDTAVYYCAASDRGGFIATSGGWMDYWGKGTQVTVSS | – | – | clearly colocalized with LRRK2 on zymosan-containing phagosomes
Nb1: LRRK2-specific Nanobody, SEQ ID NO: 1 (protein, Nanobody CA12610) VHH: MAQVQLVESGGGLVQAGGSLRLSCVASGRIFSGNAMGWYRQAPGRQRELVAGITNGGYTNYRQFVKGRFTISRDNAKRTVYLQMNSLKPEDTAVYYCNALDREARQVDYWGQGTQVTVSS | mixed-type inhibition | 1.8±0.5 | LRRK2 recruitment to phagosomes was slightly detectable

Further lines, with some results ahead:

mechanism of inhibition vis-a-vis ATP as substrate [2] | α-value [2] | Molecule | colocalization with endogenous LRRK2 on phagosomes [1]
mixed-type inhibition | 1.6±0.4 | Nb6: LRRK2-specific Nanobody, SEQ ID NO: 2 (protein, Nanobody CA12618) VHH: MAQVQLVESGGGLVQAGGSLRLSCAASGSIFSPTAMGWYRQAPGKERELVAGITSGGYTNYRNFARGRFTISRDNAKKTVYLQMNSLNPEDTAVYYCNTLTISWSWGQGTQVTVSS | LRRK2 recruitment to phagosomes was slightly detectable
mixed-inhibition mechanism | 7.5±1.9 | Nb23: LRRK2-specific Nanobody, SEQ ID NO: 3 (protein, Nanobody CA13612) VHH: MAQVQLVESGGGLVQAGGSLRLSCAASGRTFSRYTMGWFRQAPGKDREFVARITTSGAVTTYADSAKGRFTISRDNAKNTVYLQMNTLKPEDTAVYYCAAGQGQLSSQSRFVDYWGQGTQVTVSS | clearly colocalized with LRRK2 on zymosan-containing phagosomes
